Data reported in patent EP3459964A1, “GALECTIN-1 BINDING PEPTIDES AND USE THEREOF FOR DIAGNOSTIC AND THERAPEUTIC PURPOSE” (Université de Mons, priority 2017, dated 2019).
Where no end group is shown, it is not given here.

What was measured:
Human gal-1 = target: T1, Human gal-1 (Homo sapiens, UniProt P09382); assay: Gal-1 binding of the isolated phage clones (ELISA), affinity constants against gal-1 or control proteins (HSA, collagen); settings: phage clone expressing the peptide; for Affinity 2 Ka^Gal-1 / Ka^Coll / Affinity 1 Ka^Gal-1 / Ka^HSA: Ka = 1/K*d; for Affinity 2 Ka^Gal-1 / Ka^Coll: Coll = collagen; for Affinity 1 Ka^Gal-1 / Ka^HSA: one representative clone per sequence; for Affinity 3 Ka^Gal-1/ ((Ka^HSA + Ka^Coll)/2): specific affinity vs mean of control proteins
T1 construct: purchased Peprotech
T1 sequence (P09382 whole entry): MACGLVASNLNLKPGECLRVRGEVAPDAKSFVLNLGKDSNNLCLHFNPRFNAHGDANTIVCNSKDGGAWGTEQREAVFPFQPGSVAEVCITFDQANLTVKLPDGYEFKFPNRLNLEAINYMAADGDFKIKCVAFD
Protocol: Human gal-1 (Peprotech) and control proteins (HSA and collagen) were immobilized on 96-well ELISA plates at a concentration of 10 µg/mL in NaHCO3 0.1 M, pH 8.6, overnight at 4°C. The wells were then blocked with Protein-Free Blocking Buffer (PFBB, Thermo Fisher Scientific, p/a Perbio Science BVBA, Aalst, Belgium), 1 hour at room temperature. Fifty clones issued from each phage display experiment were first screened at one concentration (5 x 10^11 phages/100 µL for PDE1; 10^11 phages/100 µL for PDE2) prepared in Tris buffered saline (TBS: 50 mM Tris-HCl, 150 mM NaCl, pH 7.5) supplemented with 0.5% Tween-20 (TBST). The clones were incubated for 2 hours at room temperature, under mild agitation. To determine the apparent dissociation constant (K*d) of the selected clones, ten serial dilutions of phages (generally ranging from 5x10^12 to 10^7 phages/100 µL) were incubated with gal-1 or control proteins in the same conditions as for the first clones' screening. The bound phages were detected by an incubation (1 hour, room temperature) with horseradish peroxidase (HRP)-conjugated anti-M13 monoclonal antibody (Amersham Pharmacia Biotech Benelux, Roosendaal, The Netherlands) diluted 1:5000 in TBS supplemented with 0.5% BSA. After each incubation step, the wells were rinsed with an automated microplate washer (Beckman Coulter, Analis, Suarlée, Belgium). Finally, the wells were filled with 200 µL/well of 2,2'-azino-bis(3-ethylbenzothiazoline-6-sulphonic acid (ABTS, 22 mg) diammonium salt (Sigma-Aldrich) solution prepared in 50 mM sodium citrate pH 4.0 completed with 0.05% H2O2. The optical density (OD) was measured (405 nm, differential filter: 630 nm) using a microplate reader (StatFax-2100, Awareness Technology, Fisher Bioblock Scientific, Tournai, Belgium).

[1] = Circular dichroism study of secondary structure in distilled water; format: physicochemical; settings: non-biotinylated peptides, 1 mM in distilled water, 20 °C and 37 °C
Protocol: Non-biotinylated peptides dissolved in distilled water at 1 mM were used for structure analysis. Circular Dichroism (CD) spectra were recorded using a ChirascanTM Plus CD Spectrometer (Applied Photophysics Inc., Leatherhead, United Kingdom). The measurements were carried out using 1 mm quartz Suprasil cells from Hellma Analytics (Müllheim, Germany). The spectra were recorded between 180 and 350 nm, with a bandwidth of 0.5 nm, time per point 2 s and three repetitions, both at 20 °C and 37 °C. The CD RMS (Root Mean Square) noise is around 0.03 mdeg at 180 nm. The aqueous solution reference spectra were used as baselines and were automatically subtracted from the CD spectra of the samples.

[2] = target: T2, gal-1 expressed by human tumor tissues (Homo sapiens, UniProt P09382); assay: Binding of biotinylated peptides to human thyroid biopsies (immunohistochemistry, ImageJ semi-quantitative analysis); settings: for staining produced by peptides in healthy thyroids and thyroid adenomas compared to papillary, follicular and anaplastic thyroid cancer: ImageJ analysis of immunohistochemistry microphotographs; for targeting of the papillary areas: biotinylated peptides 20 µM, human papillary thyroid cancer biopsy sections
T2 construct: from tissue; host or cells: paraffin-embedded human thyroid biopsy sections (healthy, inflammatory, adenoma, papillary, follicular, anaplastic)
T2 sequence (P09382 whole entry): as above
Protocol: Immunohistochemistry evaluation was performed on 5 µm thick sections mounted on silane-coated glass slides. The paraffin-embedded tissue specimens were deparaffinized and rehydrated. After unmasking the epitopes in citrate buffer pH 6.0, the endogenous peroxidase activity was blocked with 0.7% H2O2. Sections were then blocked with streptavidin - biotin blocking kit (Vector Labconsult) and with 0.5% casein (Sigma-Aldrich).
The binding of biotinylated peptides to tumor biopsies was validated by using a similar protocol. However, no epitope unmasking was performed, while casein blocking was replaced by PFBB. Endogenous peroxidases were blocked with 1% H2O2. The biotinylated peptides (stock prepared in distilled water) were diluted in TBS at a concentration of 20 µM and incubated with tumor biopsies overnight at 4 °C. The bound peptides were then detected with 5 µg/mL of anti-biotin antibody made in goat (Vector Labconsult) and with 1 µg/mL of biotinylated anti-goat IgG made in horse (both from Vector Labconsult) both diluted in TBS completed with 0.5% BSA […]. After incubation with Vectastain ABC kit (Vector Labconsult), the staining with DAB/H2O2 and Hemalun counterstaining were performed as described above.
Gal-1 staining on immunohistochemistry microphotographs (DM2000 Leica microscope equipped with a DFC 425C camera, Leica Microsystems) was semi-quantitatively analyzed by ImageJ software (National Institutes of Health, USA). The expression of gal-1 was compared in 5 cases of healthy thyroid, 2 cases of inflammatory thyroid (patients with goiter), 6 cases of thyroid adenoma, 6 cases of papillary thyroid cancer, 4 cases of follicular variant of papillary thyroid cancer and 6 cases of anaplastic cancer. The binding of peptides 1 and 7 was compared in 5 cases of healthy thyroid, 2 cases of inflammatory thyroid, 6 cases of thyroid adenoma, 3 cases of papillary thyroid cancer, 3 cases of follicular thyroid cancer and 6 cases of anaplastic thyroid cancer. The total area occupied by brown stained pixels was determined after thresholding the background staining on blank histological slices, where the primary antibody was excluded. The total stained area is then automatically generated after pixel segmentation.

TPC-1 cells = assay: Cell adhesion assay: TPC-1 cell adhesion to immobilized gal-1; format: cell-based, human; settings: 500 nM, TPC-1 adhesion to gal-1, non-biotinylated peptides
Protocol: Gal-1 (Peprotech) was immobilized on 96-well culture plates at 20 µg/mL overnight at 4°C. After blocking with 0.1% BSA prepared in phosphate buffered saline (PBS, per liter: 8 g NaCl, 0.2 g KCl, 2.31 g Na2HPO4 × 12 H2O 0.2 g KH2PO4, pH 7.4), non-biotinylated peptides (P1, P7 or P1Scr) diluted in RPMI 1640 culture medium at 0.5 µM or 50 µM were pre-incubated with gal-1 for 2 hours. In the meanwhile, TPC-1 cells (10^5 cells/well) were pre-incubated with the desired concentration of peptides in RPMI 1640 culture medium for 30 minutes before seeding them into the wells. The cells were then incubated (37 °C, 5% CO2) with gal-1 immobilized on wells for one hour. The negative control cells were incubated with RPMI 1640 culture medium alone. After washing steps and plate centrifugation between them, cells were fixed 15 minutes with buffered 4% formalin (from Sigma-Aldrich) and washed before staining with 1% crystal violet. Wells were rinsed and crystal violet was solubilized with dimethyl sulfoxide (DMSO, Sigma-Aldrich) before measuring absorbance at 570 nm (differential filter at 630 nm) with a microplate reader. The percentage of adherent cells was obtained by calculating the percentage ratio of OD measured for TPC-1 incubated with peptides over the OD of negative control cells.

Row | Sequence | Affinity 2 Ka^Gal-1 / Ka^Coll (Human gal-1) | Affinity 1 Ka^Gal-1 / Ka^HSA (Human gal-1) | Affinity 3 Ka^Gal-1/ ((Ka^HSA + Ka^Coll)/2) (Human gal-1) | conformation in aqueous solution (CD signature) [1] | staining produced by peptides in healthy thyroids and thyroid adenomas compared to papillary, follicular and anaplastic thyroid cancer [2] | targeting of the papillary areas [2] | decrease of cell adhesion (TPC-1 cells)
1 | DWSSWVYRDPQT [Peptide P8] | 27.92 | 1.23 | 2.36 |  |  |  | 
2 | HLWGWLYAPSFQ [Peptide P1, HLWGWLYAPSFQ] |  |  |  | random coil state | weaker | efficient targeting of the papillary areas | around 25%
3 | HYSWSWIAYSPG [Peptide P3] | 1.35 | 0.99 | 1.14 |  |  |  | 
4 | SVYVEISWVRTM [Peptide P6] | 1.17 | 1.17 | 1.17 |  |  |  | 
5 | VHWDFRQWWQPS [Peptide P4] | 1.93 | 1.18 | 1.47 |  |  |  | 
6 | YHHSGPYAGPMW [Peptide P5] | 1.58·10^13 | 1.25 | 2.50 |  |  |  | 
7 | YSWHIDIVAPRN [Peptide P7, YSWHIDIVAPRN] | infinite ratio | infinite ratio | infinite ratio | random coil state | weaker | efficient targeting of the papillary areas | ~30%
8 | YTFHFDIFQPHF [Peptide P2] | 8.15 | 121.56 | 25.66 |  |  |  | 
